From publication PMC3911823 (The FEBS journal, 2011)
Changes are numbered by the printed parent chain. Numbers in names are those of the source. Like-named read-outs stand apart in the source and are kept apart here.

Experiments:
Assay type in all cases: biochemical, rabbit (Oryctolagus cuniculus)
[1] = substrate: CCOc1ccc2c(C(F)(F)F)cc(=O)oc2c1; settings: other: 2B4 E474Q; Michaelis-Menten fit; 37.0 °C
[2] = substrate: COc1ccc2c(C(F)(F)F)cc(=O)oc2c1; settings: other: 2B4 E474Q; Michaelis-Menten fit; 37.0 °C
[3] = substrate: CCOc1ccc2c(C(F)(F)F)cc(=O)oc2c1; settings: other: 2B4 E474D; Michaelis-Menten fit; 37.0 °C
[4] = substrate: COc1ccc2c(C(F)(F)F)cc(=O)oc2c1; settings: other: 2B4 E474D; Michaelis-Menten fit; 37.0 °C
[5] = substrate: CCOc1ccc2c(C(F)(F)F)cc(=O)oc2c1; settings: other: 2B4 WT; substrate O-dealkylation, Michaelis-Menten fit; 37.0 °C
[6] = substrate: COc1ccc2c(C(F)(F)F)cc(=O)oc2c1; settings: other: 2B4 WT; substrate O-dealkylation, Michaelis-Menten fit; 37.0 °C
[7] = substrate: CCOc1ccc2c(C(F)(F)F)cc(=O)oc2c1; settings: other: 2B4 L437A; Michaelis-Menten fit; 37.0 °C
[8] = substrate: COc1ccc2c(C(F)(F)F)cc(=O)oc2c1; settings: other: 2B4 L437A; Michaelis-Menten fit; 37.0 °C
[9] = substrate: CCOc1ccc2c(C(F)(F)F)cc(=O)oc2c1; settings: other: 2B4 H172Q; Michaelis-Menten fit; 37.0 °C
[10] = substrate: COc1ccc2c(C(F)(F)F)cc(=O)oc2c1; settings: other: 2B4 H172Q; Michaelis-Menten fit; 37.0 °C
[11] = substrate: CCOc1ccc2c(C(F)(F)F)cc(=O)oc2c1; settings: other: 2B4 H172A; Michaelis-Menten fit; 37.0 °C
[12] = substrate: COc1ccc2c(C(F)(F)F)cc(=O)oc2c1; settings: other: 2B4 H172A; Michaelis-Menten fit; 37.0 °C

B1: P450 2B4 E474Q (Oryctolagus cuniculus; E474Q) (protein)
chain: MAKKTSSKGKLPPGPSPLPVLGNLLQMDRKGLLRSFLRLREKYGDVFTVYLGSRPVVVLCGTDAIREALVDQAEAFSGRGKIAVVDPIFQGYGVIFANGERWRALRRFSLATMRDFGMGKRSVEERIQEEARCLVEELRKSKGALLDNTLLFHSITSNIICSIVFGKRFDYKDPVFLRLLDLFFQSFSLISSFSSQVFELFPGFLKHFPGTHRQIYRNLQEINTFIGQSVEKHRATLDPSNPRDFIDVYLLRMEKDKSDPSSEFHHQNLILTVLSLFFAGTETTSTTLRYGFLLMLKYPHVTERVQKEIEQVIGSHRPPALDDRAKMPYTDAVIHEIQRLGDLIPFGVPHTVTKDTQFRGYVIPKNTEVFPVLSSALHDPRYFETPNTFNPGHFLDANGALKRNEGFMPFSLGKRICLGEGIARTELFLFFTTILQNFSIASPVPPEDIDLTPRQSGVGNVPPSYQIRFLAR
In the case of B1, the Km [1] is reported as 64 ± 8 µM, the kcat [1] is reported as 0.02 ± 0.0033 s⁻¹ and the kcat/Km [1] is reported as 333 M⁻¹ s⁻¹. The Km [2] was 178 ± 17 µM and the kcat [2] was 0.04 ± 0.005 s⁻¹.

B2: P450 2B4 E474D (Oryctolagus cuniculus; E474D) (protein)
chain: B1 chain with Q455D
With B2 the Km [3] was 77 ± 10 µM, the kcat [3] was 0.0067 ± 0.0017 s⁻¹ and the Km [4] was 185 ± 14 µM. It also gave a kcat [4] of 0.0633 ± 0.0033 s⁻¹ and a kcat/Km [4] of 333 M⁻¹ s⁻¹.

B3: P450 2B4 wild type (Oryctolagus cuniculus) (protein)
chain: B1 chain with Q455E
With B3 the Km [5] was 25 ± 3 µM, the kcat [5] was 0.16 ± 0.0067 s⁻¹ and the kcat/Km [5] was 6000 M⁻¹ s⁻¹. It also gave a Km [6] of 132 ± 6 µM, a kcat [6] of 0.188 ± 0.0033 s⁻¹ and a kcat/Km [6] of 1330 M⁻¹ s⁻¹.

B4: P450 2B4 L437A (Oryctolagus cuniculus; L437A) (protein)
chain: B1 chain with L418A, Q455E
With B4 the Km [7] was 25 ± 4 µM, the kcat [7] was 0.045 ± 0.0033 s⁻¹ and the kcat/Km [7] was 2000 M⁻¹ s⁻¹. It also gave a Km [8] of 85 ± 8 µM, a kcat [8] of 0.03 ± 0.0033 s⁻¹ and a kcat/Km [8] of 333 M⁻¹ s⁻¹.

B5: P450 2B4 H172Q (Oryctolagus cuniculus; H172Q) (protein)
chain: B1 chain with H153Q, Q455E
B5 gave a Km [9] of 48 ± 6 µM, a kcat [9] of 0.0283 ± 0.005 s⁻¹ and a kcat/Km [9] of 667 M⁻¹ s⁻¹. It also gave a Km [10] of 115 ± 15 µM, a kcat [10] of 0.123 ± 0.0083 s⁻¹ and a kcat/Km [10] of 1000 M⁻¹ s⁻¹.

B6: P450 2B4 H172A (Oryctolagus cuniculus; H172A) (protein)
chain: B1 chain with H153A, Q455E
In the case of B6, the Km [11] is reported as 26 ± 4 µM, the kcat [11] is reported as 0.07 ± 0.005 s⁻¹ and the kcat/Km [11] is reported as 2500 M⁻¹ s⁻¹. For the same protein, the Km [12] was 126 ± 11 µM, the kcat [12] was 0.0867 ± 0.01 s⁻¹ and the kcat/Km [12] was 667 M⁻¹ s⁻¹.
